# From patent publication US20250215059A1 (REGENTS OF THE UNIVERSITY OF COLORADO A BODY CORPORATE, published 2025)
# Tests used:
# [1] = molecular target: T1, tau aggregates in HEK293 tau biosensor cells (4R repeat domain of tau (K18) with the P301S mutation fused to … (UniProt P10636-8 244-372)); test: Halo (JF646) imaging in seeded HEK293 tau biosensor cells
# T1 construct: domain: 4R repeat domain of tau (K18); Aggregated, insoluble form inside cells; the aggregates are seeded with brain homogenate of tau transgenic mice and may hold other proteins and RNA; Number of chains in an aggregate not defined; also called cytoplasmic tau aggregates; nuclear tau aggregates; not shown: CFP or YFP fused to the repeat domain
# [2] = molecular target: T1, tau aggregates in HEK293 tau biosensor …; test: Halo (JF646) imaging; intensity in aggregate over adjacent region, five aggregates
# Source text: The locations of the serine repeats are shown in yellow. B) Quantification of the enrichment of the various Halo tagged constructs in cytoplasmic tau aggregates. Cells both expressing the halo tagged construct and containing a tau aggregate were identified by hand, and the average Halo intensity within the tau aggregates were normalized by an adjacent region outside of the tau aggregate to calculate enrichment. […] C) Representative images of cells expressing the various Halo tagged C-terminal SRRM2 fragments. Cells were labeled with 200 nM JF646 added directly to culture media for 24 hours prior to fixation and imaging.
# [3] = molecular target: T1, tau aggregates in HEK293 tau biosensor …; test: cell-based or functional assay
# [4] = molecular target: T1, tau aggregates in HEK293 tau biosensor …; test: Halo (JF646) imaging; intensity in aggregate over adjacent region, 5 aggregates
# T1 sequence (P10636 561-689 P618S): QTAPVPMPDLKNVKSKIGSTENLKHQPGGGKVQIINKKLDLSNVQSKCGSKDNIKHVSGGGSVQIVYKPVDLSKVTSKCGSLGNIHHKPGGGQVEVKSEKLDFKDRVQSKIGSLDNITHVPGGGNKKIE
Binder,binding result [1],mean enrichment in cytoplasmic tau aggregates [2] [ratio],"tau aggregation by flow cytometry (FRET+ cells and integrated FRET density, normalized to no insert Halo) [3] [% decrease]",mean enrichment in cytoplasmic tau aggregates [4] [ratio]
"Frag_0-Halo (SRRM2 a.a. 2651-2752) (other, JF646 Halo ligand covalently bound to the Halo tag, PCR amplified from the SRRM2_FL-Halo cell line and expressed from a pcDNA plasmid with an added start codon) PAKPGPQALPKPASPKKPPPGERRSRSPRKPIDSLRDSRSLSYSPVERRRPSPQPSPRDQQSSSSERGSRRGQRGDSRSPSHKRRRETPSPRPMRHRSSRSPMAEIGTGFPFDPHYVEVLGERMHYVDVGPRDGTPVLFLHGNPTSSYVWRNIIPHVAPTHRCIAPDLIGMGKSDKPDLGYFFDDHVRFMDAFIEALGLEEVVLVIHDWGSALGFHWAKRNPERVKGIAFMEFIRPIPTWDEWPEFARETFQAFRTTDVGRKLIIDQNVFIEGTLPMGVVRPLTEVEMDHYREPFLNPVDREPLWRFPNELPIAGEPANIVALVEEYMDWLHQSPVPKLLFWGTPGVLIPPAEAARLAKSLPNCKAVDIGPGLNLLQEDNPDLIGSEIARWLSTLEISG",no binding,1.1,–,–
SRRM2 C-terminus-TNPO3-halo (other) MEGAKPTLQLVYQAVQALYHDPDPSGKERASFWLGELQRSVHAWEISDQLLQIRQDVESCYFAAQTMKMKIQTSFYELPTDSHASLRDSLLTHIQNLKDLSPVIVTQLALAIADLALQMPSWKGCVQTLVEKYSNDVTSLPFLLEILTVLPEEVHSRSLRIGANRRTEIIEDLAFYSSTVVSLLMTCVEKAGTDEKMLMKVFRCLGSWFNLGVLDSNFMANNKLLALLFEVLQQDKTSSNLHEAASDCVCSALYAIENVETNLPLAMQLFQGVLTLETAYHMAVAREDLDKVLNYCRIFTELCETFLEKIVCTPGQGLGDLRTLELLLICAGHPQYEVVEISFNFWYRLGEHLYKTNDEVIHGIFKAYIQRLLHALARHCQLEPDHEGVPEETDDFGEFRMRVSDLVKDLIFLIGSMECFAQLYSTLKEGNPPWEVTEAVLFIMAAIAKSVDPENNPTLVEVLEGVVRLPETVHTAVRYTSIELVGEMSEVVDRNPQFLDPVLGYLMKGLCEKPLASAAAKAIHNICSVCRDHMAQHFNGLLEIARSLDSFLLSPEAAVGLLKGTALVLARLPLDKITECLSELCSVQVMALKKLLSQEPSNGISSDPTVFLDRLAVIFRHTNPIVENGQTHPCQKVIQEIWPVLSETLNKHRADNRIVERCCRCLRFAVRCVGKGSAALLQPLVTQMVNVYHVHQHSCFLYLGSILVDEYGMEEGCRQGLLDMLQALCIPTFQLLEQQNGLQNHPDTVDDLFRLATRFIQRSPVTLLRSQVVIPILQWAIASTTLDHRDANCSVMRFLRDLIHTGVANDHEEDFELRKELIGQVMNQLGQQLVSQLLHTCCFCLPPYTLPDVAEVLWEIMQVDRPTFCRWLENSLKGLPKETTVGAVTVTHKQLTDFHKQVTSAEECKQVCWALRDFTRLFRGTELGSTSPVWWNSADIQSRCLIAQTTPVAGSQSLSSGAVATTTSSAGDHNGMLSVPAPGVPHSDVGEPPASTGAQQPSALAALQPAKERRSSSSSSSSSSSSSSSSSSSSSSSSSGSSSSDSEGSSLPVQPEVALKRVPSPTPAPKEAVREGRPPEPTPAKRKRRSSSSSSSSSSSSSSSSSSSSSSSSSSSSSSSSSSSSSSSSSSPSPAKPGPQALPKPASPKKPPPGERRSRSPRKPIDSLRDSRSLSYSPVERRRPSPQPSPRDQQSSSSERGSRRGQRGDSRSPSHKRRRETPSPRPMRHRSGGSGGSGGGSEIGTGFPFDPHYVEVLGERMHYVDVGPRDGTPVLFLHGNPTSSYVWRNIIPHVAPTHRCIAPDLIGMGKSDKPDLGYFFDDHVRFMDAFIEALGLEEVVLVIHDWGSALGFHWAKRNPERVKGIAFMEFIRPIPTWDEWPEFARETFQAFRTTDVGRKLIIDQNVFIEGTLPMGVVRPLTEVEMDHYREPFLNPVDREPLWRFPNELPIAGEPANIVALVEEYMDWLHQSPVPKLLFWGTPGVLIPPAEAARLAKSLPNCKAVDIGPGLNLLQEDNPDLIGSEIARWLSTLEISG,–,–,~50,–
"Halo tagged 10 serine repeat (other, JF646 Halo ligand covalently bound to the Halo tag, also called 10-serines) SSSSSSSSSSMAEIGTGFPFDPHYVEVLGERMHYVDVGPRDGTPVLFLHGNPTSSYVWRNIIPHVAPTHRCIAPDLIGMGKSDKPDLGYFFDDHVRFMDAFIEALGLEEVVLVIHDWGSALGFHWAKRNPERVKGIAFMEFIRPIPTWDEWPEFARETFQAFRTTDVGRKLIIDQNVFIEGTLPMGVVRPLTEVEMDHYREPFLNPVDREPLWRFPNELPIAGEPANIVALVEEYMDWLHQSPVPKLLFWGTPGVLIPPAEAARLAKSLPNCKAVDIGPGLNLLQEDNPDLIGSEIARWLSTLEISG",–,–,–,1.05
"Halo alone (other, JF646 Halo ligand covalently bound, Control without a targeting motif; also called Halo tag; Halo protein) MAEIGTGFPFDPHYVEVLGERMHYVDVGPRDGTPVLFLHGNPTSSYVWRNIIPHVAPTHRCIAPDLIGMGKSDKPDLGYFFDDHVRFMDAFIEALGLEEVVLVIHDWGSALGFHWAKRNPERVKGIAFMEFIRPIPTWDEWPEFARETFQAFRTTDVGRKLIIDQNVFIEGTLPMGVVRPLTEVEMDHYREPFLNPVDREPLWRFPNELPIAGEPANIVALVEEYMDWLHQSPVPKLLFWGTPGVLIPPAEAARLAKSLPNCKAVDIGPGLNLLQEDNPDLIGSEIARWLSTLEISG",no binding,1.08,–,–
"Halo tagged 5 serine repeat (other, JF646 Halo ligand covalently bound to the Halo tag, also called 5-serines) SSSSSMAEIGTGFPFDPHYVEVLGERMHYVDVGPRDGTPVLFLHGNPTSSYVWRNIIPHVAPTHRCIAPDLIGMGKSDKPDLGYFFDDHVRFMDAFIEALGLEEVVLVIHDWGSALGFHWAKRNPERVKGIAFMEFIRPIPTWDEWPEFARETFQAFRTTDVGRKLIIDQNVFIEGTLPMGVVRPLTEVEMDHYREPFLNPVDREPLWRFPNELPIAGEPANIVALVEEYMDWLHQSPVPKLLFWGTPGVLIPPAEAARLAKSLPNCKAVDIGPGLNLLQEDNPDLIGSEIARWLSTLEISG",–,–,–,0.95
